Laboratory results from publication PMC2955897 (Journal of immunology (Baltimore, Md. : 1950), 2009).
Substitutions are numbered along the chain they refer to. Read-outs that look alike come from different tables or passages of the source.

B1: Peroxiredoxin 1 (recombinant human Prx1, unlabeled) (natural protein, UniProt Q06830 1-199, looked up)
chain: MSSGNAKIGHPAPNFKATAVMPDGQFKDISLSDYKGKYVVFFFYPLDFTFVCPTEIIAFSDRAEEFKKLNCQVIGASVDSHFCHLAWVNTPKKQGGLGPMNIPLVSDPKRTIAQDYGVLKADEGISFRGLFIIDDKGILRQITVNDLPVGRSVDETLRLVQAFQFTDKHGEVCPAGWKPGSDTIKPDVQKSKEYFSKQK
B2: FITC-conjugated Prx1 (recombinant human) (natural protein, UniProt Q06830 1-199, looked up)
chain: B1 chain
modifications: FITC conjugated (FITC conjugation kit, Sigma; residues not stated)
B3: FITC-conjugated Prx1C52S (recombinant human) (natural protein, UniProt Q06830 1-199, looked up)
chain: B1 chain with C52S
modifications: FITC conjugated (FITC conjugation kit, Sigma; residues not stated)
B4: Prx1C52S (recombinant human, unlabeled) (natural protein, UniProt Q06830 1-199, looked up)
chain: B1 chain with C52S

Assays:
Assay in all cases: flow cytometry on cells
Toll-like receptor 4 [1] = target: T1, Toll-like receptor 4 (mouse (endogenous in TG-elicited …, UniProt Q9QUK6 26-835))
T1 sequence (looked up): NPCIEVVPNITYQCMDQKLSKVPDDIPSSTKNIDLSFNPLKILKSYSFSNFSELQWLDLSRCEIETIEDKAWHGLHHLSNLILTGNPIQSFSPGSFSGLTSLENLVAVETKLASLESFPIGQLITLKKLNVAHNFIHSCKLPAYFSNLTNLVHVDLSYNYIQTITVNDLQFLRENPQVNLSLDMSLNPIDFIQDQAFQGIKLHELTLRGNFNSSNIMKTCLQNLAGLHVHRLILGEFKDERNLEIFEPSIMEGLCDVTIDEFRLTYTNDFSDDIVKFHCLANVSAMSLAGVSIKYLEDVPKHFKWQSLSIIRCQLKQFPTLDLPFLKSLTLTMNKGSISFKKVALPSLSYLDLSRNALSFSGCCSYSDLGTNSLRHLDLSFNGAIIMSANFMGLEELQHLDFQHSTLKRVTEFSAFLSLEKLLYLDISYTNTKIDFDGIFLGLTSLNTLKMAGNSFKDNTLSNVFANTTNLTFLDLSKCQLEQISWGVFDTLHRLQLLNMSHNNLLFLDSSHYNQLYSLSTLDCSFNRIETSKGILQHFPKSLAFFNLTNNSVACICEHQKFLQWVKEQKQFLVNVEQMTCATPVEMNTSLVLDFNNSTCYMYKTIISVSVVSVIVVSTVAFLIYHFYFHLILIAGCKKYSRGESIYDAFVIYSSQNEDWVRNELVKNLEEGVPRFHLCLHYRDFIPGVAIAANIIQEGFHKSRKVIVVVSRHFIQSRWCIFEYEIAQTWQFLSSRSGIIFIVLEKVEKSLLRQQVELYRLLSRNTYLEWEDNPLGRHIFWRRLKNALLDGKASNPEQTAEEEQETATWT

Toll-like receptor 4 [2] = target: T1, Toll-like receptor 4; remark: listed apart in the source
Toll-like receptor 4 [3] = target: T1, Toll-like receptor 4; remark: listed apart in the source

Binder	Ki (Toll-like receptor 4 [1]) [µM]	Kd (Toll-like receptor 4 [2]) [µM]	Kd (Toll-like receptor 4 [3]) [µM]
B1	4100		
B2		1600	~1300
B3		2500	
B4	5200		
